Reference: patent US20250213647A1, “CHEMOKINE RECEPTORS AND ALPHA1 ADRENERGIC RECEPTORS/VASOPRESSIN RECEPTORS 1A HETEROMERS AS DRUG TARGETS FOR DISEASE” (UNIVERSITY OF SOUTH FLORIDA, priority 2022, published 2025)
Like-named read-outs stand apart in the source and are kept apart here.

How the values were obtained:
[1] = system: CXCR1; test: Chemotaxis assay, THP-1 cells toward CXCL8 (CXCR1-mediated); format: cell-based, human; conditions: CXCL8 10 nM, FIG. 13B
Description: (§1) Cell migration was measured employing the Neuroprobe (Gaithersburg, MD, USA) ChemoTx® Disposable Chemotaxis System. A 96-well Boyden-chamber (30 μL/well, 8 μm pores, 1×10^5 pores/cm^2 pore density) was selected for all chemotaxis experiments. Bottom wells of the Boyden-chamber were loaded with 30 μL of test substances at various concentrations. Top wells of the membrane were loaded with 25 μL of THP-1 cells, THP-1_ADRA1B^KO, wild type THP-1 cells after clonal expansion (=control for THP-1_ADRA1B^KO) or freshly isolated monocytes (200 cells/μL). THP-1 cells were suspended in depleted RPMI1640 (0.5% HyClone™ fetal bovine serum, Sigma); Freshly isolated monocytes were suspended in RPMI1640 (0.5% human platelet poor plasma, Sigma). After 3 hours, transmigrated cells were counted utilizing the Cytation 1 plate reader (BioTek) by direct imaging in high contrast bright field (4×) and post-imaging particle analyses with Gen5 (v3.05) Imaging & Microscopy Software (BioTek). The chemotactic index (CI) was calculated as the ratio of cells that transmigrated in the presence versus the absence of the test solutions.

[2] = molecular target: T1, CCR2 (Homo sapiens, UniProt P41597); test: Radioligand competition binding assay, [125I]-CCL2, crude membrane preparations of THP-1 cells; set-up: host or cells: THP-1; conditions: THP-1 cells pretreated with vehicle; mean±SE, n=3; read-out: IC50 of CCL2 to displace [125I]-CCL2
Description: Cells were then centrifuged at 30,000× g (20 min, 4° C.), the supernatant was discarded, and pelleted cell fragments were snap-frozen in liquid nitrogen. The cell pellets were resuspended in 50 mM HEPES, 5 mM MgCl2, 1 mM CaCl2, 0.1% w/v BSA, pH 7.2, and then incubated with 50 pM [^125I]-CCL2, 1× Xpert Protease Inhibitor Cocktail (GenDEPOT), and varying concentrations of CCL2 for 1.5 h at 25° C. Bound [^125I]-CCL2 was collected via vacuum filtration using buffer containing 10 mM HEPES (pH 7.4) and 0.5 M NaCl at 4° C., and a cell harvester (Brandel) equipped with glass fiber filters. Radioactivity was measured in a gamma counter at 70% efficiency.

[3] = system: THP-1 cells (CCR2-mediated Gαi signaling); test: Cyclic AMP measurement in forskolin-stimulated THP-1 cells; format: cell-based, human; conditions: for % inhibition of cAMP production by CCL2: 100 nM CCL2, FIG. 2F
Description: (§2) Cyclic AMP amounts were measured using the cAMP complete enzyme immunoassay kit, acetylated format (Enzo Life Sciences). 4×10^5 cells were incubated with forskolin/isobutylmethylxanthine (10 μM/0.5 mM final concentrations) in 0.1% BSA/10 mM Hepes-buffered RPMI and treated with CCL2 in the presence or absence of 1 μM PE, 1 μM PT or 100 nM NE at 37° C. for 15 min. The cells were lysed by incubating with 0.1 M HCl at room temperature for 20 min. The cAMP amounts in the lysate supernatant were measured following the manufacturer's instructions.

[4] = molecular target: T2, mouse CCR2 (Mus musculus, UniProt P51683); test: Gαi activation assay (TRUPATH BRET), HEK293T cells transfected with mouse CCR2; format: cell-based; conditions: FIG. 9A
T2 construct: expressed in transfected cells; host or cells: HEK293T
Description: (§3) HEK293T cells were plated in a 6-well plate and transfected with 0.2 μg each of Gαi1-Rluc8, Gβ3 and Gγ9-GFP2 (Trupath) together with 0.2 μg of mouse or human CCR2 with either pcDNA3.1 or α1b-AR. One day after transfection, cells were trypsinized and replated to 96-well poly-L lysine precoated plates. After overnight incubation, cells were replaced with 0.1% glucose/PBS. Prolume Purple (NanoLight Tech.) or coelenterazine 400a in a final concentration of 5 μM were added in experiments with human or mouse CCR2, respectively, and incubated at room temperature for 3 min. Ligands at various concentrations were added to cells and incubated at room temperature for 5 min before luminescence was measured at 410 nm and 515 nm. […] The BRET changes were calculated by subtracting the BRET signal of untreated cells.

[5] = system: THP-1_ADRA1B^KO cells; test: Cyclic AMP measurement in forskolin-stimulated THP-1_ADRA1B^KO cells; format: cell-based, human; conditions: FIG. 2B
Description: as §2

[6] = molecular target: T3, CCR2:α1b-AR heteromers (Homo sapiens, UniProt P35368+P41597); test: BRET assay for β-arrestin recruitment, HEK293T co-expressing CCR2-Rluc, β-arrestin-YFP and α1b-AR; format: cell-based; set-up: expressed in transfected cells; conditions: CCL2 plus vehicle; FIG. 5D
Description: (§4) β-arrestin recruitment was measured by BRET, as described (Armando, 2014; Berchiche, 2011). In brief, HEK293T cells were plated in a 6-well plate and transfected with 0.1 μg of CCR2-RluII and 1.9 μg β-arrestin-YFP with 0.1 μg pcDNA3.1 or α1b-AR. One day after transfection, cells were re-plated into 96-well poly-L lysine precoated plates. After overnight incubation, cells were replaced with 0.1% glucose/PBS. Coelenterazine H in a final concentration of 5 μM was added to cells and incubated at room temperature for 3 min. […] The BRET changes were calculated by subtracting the BRET signal of untreated cells.

[7] = molecular target: T1, CCR2; test: Gαi activation assay (TRUPATH BRET), HEK293T cells transfected with CCR2 plus pcDNA3 (CCR2 alone); format: cell-based
Description: as §3

[8] = molecular target: T1, CCR2; test: BRET assay for β-arrestin recruitment, HEK293T with CCR2-Rluc and β-arrestin-YFP without α1b-AR; format: cell-based; conditions: FIG. 5C, read-out: EC50 of CCL2, BRET between CCR2-Rluc and β-arrestin-YFP
Description: as §4

[9] = molecular target: T3, CCR2:α1b-AR heteromers; test: PRESTO-Tango β-arrestin recruitment assay, HTLA cells with CCR2-Tango plus α1b-AR; format: cell-based; set-up: Tango module of the TANGO vector (C); expressed in transfected cells; host or cells: HTLA
Description: The assays were performed as described previously (Albee, 2017; Gao, 2022; Albee, 2018; Eby, 2017; Cheng, 2017). HTLA cells were seeded in a 6-well plate and transfected with 750 ng FLAG-CCR2-Tango together with 750 ng pcDNA3.1 or HA-α1b-AR using TransIT-2020 Transfection Reagent. The next day, cells (75,000 cells/well) were plated onto poly-L-Lysine pre-coated 96-well plates and allowed to attach to the plate surface for at least 4 hours prior to treatment. Cells were treated with receptor ligands at the concentrations indicated in the figure legends for 2 h and then replaced with fresh full medium and incubated overnight at 37° C., 5% CO2 in a humidified environment. The following morning, medium was replaced with a 100 μL 1:10 mixture of Bright-Glo (Promega) and PBS. Plates were then incubated at room temperature for 10 min before measuring luminescence on a Biotek Synergy II plate reader. Relative luminescence units (RLU) are expressed as fold changes of RLU vs unstimulated cells.

[10] = molecular target: T4, α1b-AR:CCR2 heteromer (Homo sapiens, UniProt P35368+P41597); test: Gαi activation assay (TRUPATH BRET), HEK293T cells transfected with CCR2 plus α1b-AR; format: cell-based
T4 construct: expressed in transfected cells; host or cells: HEK293T
Description: as §3

[11] = molecular target: T1, CCR2; conditions: higher for CCR2; cited from earlier work
[12] = system: CR heteromerization partners of α1B/D-ARs (CCR1, CCR2, CXCR4); test: Chemotaxis assay, THP-1 cells, CR heteromerization partners of α1B/D-ARs taken together; format: cell-based, human; conditions: FIG. 17D-17F
Description: as §1

T1 sequence (P41597 whole entry, the tested form may be a part): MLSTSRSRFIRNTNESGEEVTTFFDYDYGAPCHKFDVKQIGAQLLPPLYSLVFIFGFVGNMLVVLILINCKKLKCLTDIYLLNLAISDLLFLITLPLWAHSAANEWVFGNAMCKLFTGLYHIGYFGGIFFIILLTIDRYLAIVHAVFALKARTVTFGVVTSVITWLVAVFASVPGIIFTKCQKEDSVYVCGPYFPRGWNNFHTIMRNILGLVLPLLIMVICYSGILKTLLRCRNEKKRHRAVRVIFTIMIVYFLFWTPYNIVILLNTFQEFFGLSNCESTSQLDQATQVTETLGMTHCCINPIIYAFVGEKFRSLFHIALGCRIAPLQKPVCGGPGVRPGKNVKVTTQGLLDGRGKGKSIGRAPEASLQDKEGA
T4 sequence (P41597 whole entry): as the sequence (P41597 whole entry, the tested form may be a part) above
T4 sequence (P35368 whole entry): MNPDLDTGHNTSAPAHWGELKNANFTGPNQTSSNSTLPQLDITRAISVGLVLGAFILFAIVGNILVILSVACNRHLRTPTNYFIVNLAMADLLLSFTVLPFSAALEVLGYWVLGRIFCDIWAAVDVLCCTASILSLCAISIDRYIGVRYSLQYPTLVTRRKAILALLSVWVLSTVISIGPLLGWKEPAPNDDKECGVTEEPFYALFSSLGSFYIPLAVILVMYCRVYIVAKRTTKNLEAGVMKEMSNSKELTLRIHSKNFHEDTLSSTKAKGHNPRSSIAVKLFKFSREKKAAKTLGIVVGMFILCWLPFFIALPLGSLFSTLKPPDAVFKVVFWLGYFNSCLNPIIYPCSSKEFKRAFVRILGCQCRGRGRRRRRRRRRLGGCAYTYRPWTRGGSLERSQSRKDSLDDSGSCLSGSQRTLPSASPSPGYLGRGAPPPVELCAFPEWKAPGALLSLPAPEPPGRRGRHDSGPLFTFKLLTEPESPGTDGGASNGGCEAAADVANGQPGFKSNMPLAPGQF
T3 sequence (P41597 whole entry): as the sequence (P41597 whole entry, the tested form may be a part) above
T3 sequence (P35368 whole entry): as the sequence (P35368 whole entry) above
T2 sequence (P51683 whole entry): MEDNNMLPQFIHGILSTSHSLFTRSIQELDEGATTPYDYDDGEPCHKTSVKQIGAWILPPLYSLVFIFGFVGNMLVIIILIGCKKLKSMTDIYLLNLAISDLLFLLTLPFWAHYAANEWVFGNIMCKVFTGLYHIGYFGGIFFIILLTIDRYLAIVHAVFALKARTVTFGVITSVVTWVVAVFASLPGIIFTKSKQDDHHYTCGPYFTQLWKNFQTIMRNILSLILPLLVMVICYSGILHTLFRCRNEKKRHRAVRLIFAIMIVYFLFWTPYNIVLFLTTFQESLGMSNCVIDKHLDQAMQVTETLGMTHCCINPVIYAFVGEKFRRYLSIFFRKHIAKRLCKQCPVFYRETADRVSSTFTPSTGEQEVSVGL

NC(=O)CC[C@@H]1NC(=O)[C@H](Cc2ccccc2)NC(=O)[C@H](Cc2ccc(O)cc2)NC(=O)[C@@H](N)CSSC[C@@H](C(=O)N2CCC[C@H]2C(=O)N[C@@H](CCCN=C(N)N)C(=O)NCC(N)=O)NC(=O)[C@H](CC(N)=O)NC1=O [AVP, arginine vasopressin]
chemotaxis mediated by CXCR1 [1]: did not affect

CCL2: chemokine (C-C motif) ligand 2, cognate agonist of CCR2, CCR3 and CCR5
IC50 [2]: 0.167 ± 0.023 nM
% inhibition of cAMP production by CCL2 ([3]; THP-1 cells incubated with non-targeting siRNA): 66±5%
% inhibition of cAMP production by CCL2 ([3]; THP-1 cells incubated with α1B-AR siRNA): 46±4%
reduction of cAMP levels by CCL2 ([3]; forskolin-stimulated THP-1 cells, 100 nM CCL2, 15 min at 37° C., FIG. 2B): 56±6%
bottom plateau, Gαi1 activation by human CCL2 [4]: −0.073±0.009
EC50 ([4]; read-out: EC50 of human CCL2, Gαi1 activation): 3.5 ± 3.1 nM
inhibition of cAMP production by CCL2 ([5]; forskolin-stimulated THP-1_ADRA1B^KO cells, 100 nM CCL2, 15 min at 37° C.): 30±4%
EC50 [6]: 3.7 ± 0.5 nM
Top plateau, β-arrestin recruitment BRET [6]: 0.06±0.001
bottom plateau (BRET change), Gαi1 activation by CCL2 ([7]; cells transfected with CCR2 alone, FIG. 1B): −0.03±0.001
EC50 ([7]; cells transfected with CCR2 alone, FIG. 1B, read-out: EC50 of CCL2, Gαi1 activation): 3.31 nM
bottom plateau, Gαi1 activation by human CCL2 ([7]; human CCR2, FIG. 9A): −0.058±0.004
EC50 ([7]; human CCR2, FIG. 9A, read-out: EC50 of human CCL2, Gαi1 activation): 1.4 ± 0.8 nM
EC50 [8]: 3.5 ± 0.9 nM
EC50 ([9]; CCL2 alone, FIG. 5B): 1.6 ± 1.3 nM
efficacy to induce β-arrestin recruitment to CCR2 ([9]; agonist alone): 43±5 fold change RLU
efficacy of CCL2 relative to phenylephrine to recruit β-arrestin to CCR2 ([9]; higher): 18 fold
bottom plateau, CCL2-induced Gαi activation ([10]; CCL2 plus vehicle, FIG. 4C): −0.04±0.002
EC50 ([10]; CCL2 plus vehicle, FIG. 4C, read-out: EC50 of CCL2 to induce Gαi activation): 0.9 ± 0.25 nM
bottom plateau, CCL2-induced Gαi activation ([10]; CCL2 plus vehicle, FIG. 4D): −0.04±0.002
EC50 ([10]; CCL2 plus vehicle, FIG. 4D, read-out: EC50 of CCL2 to induce Gαi activation): 1.3 ± 0.4 nM
bottom plateau, CCL2-induced Gαi activation ([10]; CCL2 plus vehicle, FIG. 4F): −0.042±0.002
EC50 ([10]; CCL2 plus vehicle, FIG. 4F, read-out: EC50 of CCL2 to induce Gαi activation): 1.5 ± 0.5 nM
bottom plateau (BRET change), Gαi1 activation by CCL2 ([10]; cells transfected with CCR2 plus α1b-AR, FIG. 1B): −0.037±0.001
EC50 ([10]; cells transfected with CCR2 plus α1b-AR, FIG. 1B, read-out: EC50 of CCL2, Gαi1 activation): 0.94 ± 0.2 nM
binding affinity of CCL2 for CCR2 relative to CCR3 and CCR5 [11]: approximately 100 fold

COc1ccccc1N1CCN(CCCNc2c(C)c(=O)n(C)c(=O)n2C)CC1 [5-Methylurapidil]
CR-mediated chemotaxis (CCR1, CCR2 and CXCR4) [12]: did not affect

NC[C@H](O)c1ccc(O)c(O)c1 [norepinephrine]
effect on the effects of CCL2 on cAMP production ([3]; forskolin-stimulated THP-1 cells, 1 μM PE, 1 μM PT or 100 nM NE, 15 min at 37° C., FIG. 4G, 4H): inhibited the effects of CCL2 on cAMP production
effect on CCL2-induced Gαi1 activation ([7]; cells transfected with CCR2 alone, 10 μM PE or PT, FIG. 4B, 4E): did not affect

B1: CCL1: Chemokine (C-C motif) ligand 1, selective agonist of CCR8 (protein, UniProt P22362 24-96, looked up)
C-C motif chemokine 1: KSMQVPFSRCCFSFAEQEIPLRAILCYRNTSSICSNEGLIFKLKRGKEACALDTVGWVQRHRKMLRHCPSKRK
inhibition of forskolin-stimulated cAMP production by CCL1, THP1 vs THP-1_ADRA1B^KO cells ([5]; 100 nM CCL1, 15 min at 37° C.): indistinguishable
